Assay [1] addresses T1, Recombinant Human DLL4 (R&D Systems Cat#1506-D4/CF) (human, UniProt Q9NR61 27-524).
T1 construct: Bought recombinant protein; also called delta-like protein 4; rHuman DLL4
Briefly: MSD multispot ECL, antigen spotted on plate; Fab 0.2975 uM; blank spot 5019.

For assay [2], the target named is T2, rHuman Erythropoietin R/Fc Chimera, CF (R&D Systems Cat#963-ER) (human, UniProt P19235 25-250).
T2 construct: Bought recombinant protein; also called EPO R/Fc; Epo R; Fc part of the bought chimera not given
T2 sequence (looked up): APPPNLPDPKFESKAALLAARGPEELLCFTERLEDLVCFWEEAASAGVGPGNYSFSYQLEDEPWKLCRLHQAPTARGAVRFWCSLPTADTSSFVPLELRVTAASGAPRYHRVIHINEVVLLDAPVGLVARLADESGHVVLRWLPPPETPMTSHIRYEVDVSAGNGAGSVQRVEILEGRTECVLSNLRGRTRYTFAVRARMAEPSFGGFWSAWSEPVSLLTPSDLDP
Described as above.

For assay [3], the target named is T3, rHuman EGF R/Fc Chimera, CF (R&D Systems Cat#344-ER) (human, UniProt P00533 25-645).
T3 construct: Bought recombinant protein; also called epidermal growth factor receptor; Fc part of the bought chimera not given
The assay is described as above.

Assay [4] has as its target T4, rHuman P-Cadherin/Fc Chimera, CF (R&D Systems Cat#861-PC) (human, UniProt P22223 108-654).
T4 construct: Bought recombinant protein; Fc part of the bought chimera not given
The assay is described as above.

Assay [5] deals with T5, rHuman Notch-1/Fc Chimera, CF (R&D Systems Cat#3647-TK) (human, UniProt P46531 19-526).
T5 construct: Bought recombinant protein; Fc part of the bought chimera not given
The description is as above.

The target of assay [6] is T1, Recombinant Human DLL4 (R&D Systems …). Briefly: MSD multispot ECL, antigen spotted on plate; Fab 0.07438 uM; blank spot 2504.
Assay [7] concerns the target T2, rHuman Erythropoietin R/Fc Chimera, CF …. The description is as above.
The target in assay [8] is T3, rHuman EGF R/Fc Chimera, CF (R&D …). The description is as above.
In assay [9] the target is T4, rHuman P-Cadherin/Fc Chimera, CF (R&D …). Described as above.
Assay [10] has as its target T5, rHuman Notch-1/Fc Chimera, CF (R&D …). Described as above.
The target in assay [11] is T1, Recombinant Human DLL4 (R&D Systems …). Briefly: MSD multispot ECL, antigen spotted on plate; Fab 0.01859 uM; blank spot 1776.
Assay [12] deals with T2, rHuman Erythropoietin R/Fc Chimera, CF …. Described as above.
The target in assay [13] is T3, rHuman EGF R/Fc Chimera, CF (R&D …). The description is as above.
For assay [14], the target named is T4, rHuman P-Cadherin/Fc Chimera, CF (R&D …). Described as above.
Assay [15] concerns the target T5, rHuman Notch-1/Fc Chimera, CF (R&D …). The description is as above.
The target of assay [16] is T1, Recombinant Human DLL4 (R&D Systems …). Briefly: MSD multispot ECL, antigen spotted on plate; Fab 1.19 uM; blank spot 24999.
The target of assay [17] is T2, rHuman Erythropoietin R/Fc Chimera, CF …. The assay is described as above.
For assay [18], the target named is T3, rHuman EGF R/Fc Chimera, CF (R&D …). The assay is described as above.
Assay [19] deals with T4, rHuman P-Cadherin/Fc Chimera, CF (R&D …). Described as above.
Assay [20] addresses T5, rHuman Notch-1/Fc Chimera, CF (R&D …). The assay is described as above.
Assay [21] deals with T6, rHuman IGF-1 sR, (IGF-1 sR), CF (R&D Systems Cat#391-GR) (human, UniProt P08069 31-932).
T6 construct: Bought recombinant soluble receptor; also called insulin-like growth factor-1 soluble receptor
Put plainly: Multispot ECL (MSD) assay, antigen spotted on plate, Fab at 0.48 µM; blank spot 2945.

Assay [22] addresses T6, rHuman IGF-1 sR, (IGF-1 sR), CF (R&D …). Briefly: Multispot ECL (MSD) assay, antigen spotted on plate, Fab at 0.096 µM; blank spot 917.
The target is the same in assay [23]. Briefly: Multispot ECL (MSD) assay, antigen spotted on plate, Fab at 0.0192 µM; blank spot 751.
In assay [24] the target is T7, full-length human DLL4 expressed on the surface of CHO cells (human, UniProt Q9NR61 26-685).
T7 construct: also called CHO-DLL4; DLL4-expressing CHO cells
Briefly: flow cytometry; 250 nM biotinylated Notch-Fc on CHO-DLL4 cells, streptavidin-PE; no-Fab baseline of the blocking series.

B1: Fab VH1-46_IGHD6-13*01_IGHJ4*01 & L2_IGKJ1*01 (Fab, V domains shown)
VH: QVQLVQSGAEVKKPGASVKVSCKASGYTFTSYYMHWVRQAPGQGLEWMGIINPSGGSTSYAQKFQGRVTMTRDTSTSTVYMELSSLRSEDTAVYYCAREGYSSSWYDYFDYWGQGTLVTVSS
VL: not shown
notes: Germline library Fab expressed in E. coli; VH was cloned into Plasmid A, which adds CH1 with His6 and Flag tags
For the molecule B1, the ECL signal in [1] came out at 34700; in assay [2], 167000; in assay [3], 42200; in assay [4] it was 26000; in [5], 37500; in [6], 20700. Also, the ECL signal in [7] stood at 154000; in assay [8], 16600; in assay [9], 14800; in assay [10] it was 22000; in assay [11] it was 18900; in assay [12], 188000. For the same molecule, the ECL signal in [13] is 11800; in assay [14] it was 11700; in assay [15], 17600; in [16], 74900; in [17] it was 193000; in [18], 62500. Moreover, the ECL signal in assay [19] worked out at 69700; in [20], 72000.

B2: Fab VH1-46_IGHD6-13*01_IGHJ4*01 & A27_IGKJ1*01 (Fab, V domains shown)
VH: B1 VH
VL: not shown
notes: Germline Fab made in E. coli; VH was cloned in Plasmid A (CH1 constant region, His6 and Flag tags) and the kappa VL in Plasmid C (kappa CL); Only the variable domains are tied to this Fab by name
Turning to B2, the ECL signal in [21] turned out to be 8930; in assay [22], 2450; in assay [23], 1830.

B3: rHuman Notch-1/Fc Chimera (Fc fusion)
chain: ARGPRCSQPGETCLNGGKCEAANGTEACVCGGAFVGPRCQDPNPCLSTPCKNAGTCHVVDRRGVADYACSCALGFSGPLCLTPLDNACLTNPCRNGGTCDLLTLTEYKCRCPPGWSGKSCQQADPCASNPCANGGQCLPFEASYICHCPPSFHGPTCRQDVNECGQKPGLCRHGGTCHNEVGSYRCVCRATHTGPNCERPYVPCSPSPCQNGGTCRPTGDVTHECACLPGFTGQNCEENIDDCPGNNCKNGGACVDGVNTYNCRCPPEWTGQYCTEDVDECQLMPNACQNGGTCHNTHGGYNCVCVNGWTGEDCSENIDDCASAACFHGATCHDRVASFYCECPHGRTGLLCHLNDACISNPCNEGSNCDTNPVNGKAICTCPSGYTGPACSQDVDECSLGANPCEHAGKCINTLGSFECQCLQGYTGPRCEIDVNECVSNPCQNDATCLDQIGEFQCICMPGYEGVHCEVNTDECASSPCLHNGRCLDKINEFQCECPTGFTGHLCQ
notes: Bought from R&D Systems (Cat#3647-TK); also called Notch-Fc; Notch-FC; Fc part of the bought chimera not given
With B3, in assay [24], the “signal of biotinylated Notch-Fc bound to CHO-DLL4 cells without Fab (read-out not given)” value was determined as 531.

(Values after patent US20120316071A1 (published 2012).)
